Test results published in paper PMC6461089, “Characterization of the phosphotransacetylase-acetate kinase pathway for ATP production in Porphyromonas gingivalis” (Journal of Oral Microbiology, 2019).

Assays:
Assay type in all cases: biochemical, Porphyromonas gingivalis
[1] = substrate: CC(=O)OP(=O)(O)O; assay: ATP formation coupled to hexokinase / glucose-6-phosphate dehydrogenase (NADPH, A340), secondary plots; details: co-substrate ADP (0.267-2.67 mM, extrapolated), 50 mM Tris/HCl pH 8.0, 1.3 mM MgCl2 (methods also mention MnCl2), 37°C
From the text: (§1) ATP formation coupled to hexokinase / glucose-6-phosphate dehydrogenase (NADPH, A340), secondary plots on PgAck (PGN_1178)

[2] = substrate: Nc1ncnc2c1ncn2[C@@H]1O[C@H](COP(=O)(O)OP(=O)(O)O)[C@@H](O)[C@H]1O; assay: as above; details: co-substrate AcP (0.0667-0.667 mM, extrapolated), 50 mM Tris/HCl pH 8.0, 1.3 mM MgCl2 (methods also mention MnCl2), 37°C
From the text: as §1

[3] = substrate: CC(=O)SCCNC(=O)CCNC(=O)[C@H](O)C(C)(C)COP(=O)(O)OP(=O)(O)OC[C@H]1O[C@@H](n2cnc3c(N)ncnc32)[C@H](O)[C@@H]1OP(=O)(O)O; assay: acetyl-CoA consumption at A233, Michaelis-Menten fit; details: 100 mM Tris/phosphate pH 9.0 (phosphate co-substrate), 20 mM KCl, 37°C, acetyl-CoA 50-200 µM
From the text: acetyl-CoA consumption at A233, Michaelis-Menten fit on PgPta (PGN_1179)

B1: PgAck (PGN_1178) (Porphyromonas gingivalis ATCC 33277) (protein)
chain: MKVLVLNCGSSSVKYKLLEMPKGDVLAQGGVEKLGLPGSFLKLTMPNGEKVVLEKDMPEHTIAVEFILSVLKDDKYGCIKSYEEIDAVGHRLVHGGEKFSNSVEITPEVIAKVEECIPLAPLHNPANLKGVVAIEKLLPGIRQVGVFDTAFFQTMPEHVYRYALPYDMCNKHGVRRYGFHGTSHRYVSARACEILGLDYDKTRIITAHIGNGASIAAIKNGKALDVSLGMTPVEGLMMGTRSGDVDPGVLTFLMEAEGLQAAGISELINKKSGVLGVSGVSSDLREIEDAIKNGNERATLAMTMYDYRIKKYVGAYAAAMGGVDVLVFTGGVGENQYTTREKVCTDMEFMGIVFDSKVNEGMRGKEMVISKPESKVTVIVVPTDEEYMIASDTMTILK
notes: full length (398 residues), E. coli BL21(DE3), pET28a, N-terminal His6 tag cut off by thrombin; homodimer (108 kDa by gel filtration); EC 2.7.2.1
Km [1]: 22.2 ± 0.2 µM | Vmax [1]: 145 µmol/min/mg | kcat [1]: 105 ± 1 s⁻¹ | Km [2]: 188 ± 22 µM | Vmax [2]: 145 µmol/min/mg | kcat [2]: 105 ± 1 s⁻¹

B2: PgPta (PGN_1179) (Porphyromonas gingivalis ATCC 33277) (protein)
chain: MDLIQDVIRRAQENKQRIVLPEGLEPRTLEAADRLMADKVVNIILIGNVDSVKAKVAELGLKNLDEAVIIDPNNHPKKQQYTDLLLQIRQKKGLTPEKAAELVENPLYLGCLIVKSGDADGLIAGAQNTTGDVLRPALQVIKTAPGMTSVSGTFLLFTKAKEYGKDGLLLVADCAVIPNPTADELAQIAVATARTAKAIADIEPRVAMLSFSTKGSAKHEMTDKVVEATRMAQEMAPDLLIDGEMQADAALVERVAALKAPGSNVAGKANVLVFPTLEVGNIAYKLVERLGHAEAVGPILQGMAAPVNDLSRGCSVEDIYRMVAITANQAIAAKEQ
notes: full length (domains span residues 1-336), E. coli BL21(DE3), pGEX-6P-1, GST tag cut off by PreScission protease; EC 2.3.1.8
Km [3]: 63.8 ± 7.5 µM | Vmax [3]: 2470 ± 105 µmol/min/mg | kcat [3]: 1490 ± 63 s⁻¹
